# Laboratory results published in the supplement of paper PMC10724198.
# Key:
# Saccharomyces cerevisiae [1] = assay: protein stability index of tFT-peptide fusion in wild type (PSI (0-1 scale)); higher = more stable (slower turnover); settings: genetic background: wild type
# Saccharomyces cerevisiae [2] = assay: protein stability index of tFT-peptide fusion in deletion strain of DOA10 (PSI (0-1 scale)); higher = more stable (slower turnover)
# Procedure: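 MPS profiling in S. cerevisiae of two library types built from selected 12-aa C-degron peptides (IN1, IN2, LN1, LN3, VN2, R1-R5, W1-W3, Atg1 and Rpa12 C-termini): saturation mutagenesis libraries and C-terminal +1 capping libraries (13 aa). Each peptide is fused to the C-terminus of a sfGFP-mCherry timer, after a GGGS linker. Cells are FACS-sorted into 8 mCherry/sfGFP bins and sequenced. PSI runs from 0 (unstable) to 1 (stable), measured once in wild type and in the das1Δ or doa10Δ background.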
# Saccharomyces cerevisiae [3] = assay: protein stability index of tFT-peptide fusion in deletion strain of DAS1 (PSI (0-1 scale)); higher = more stable (slower turnover)
# 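Throughout, for protein stability index of tFT-peptide fusion in deletion strain of DAS1: PSI is a weighted mean of each variant's read distribution over the sorted stability bins, computed only for variants having over 10 reads in total.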
# 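Throughout, for protein stability index of tFT-peptide fusion in deletion strain of DOA10: PSI per variant is the weighted mean of its sequencing read distribution over the sorted stability bins, counting only variants with over 10 reads summed across bins.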
# 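Throughout, for protein stability index of tFT-peptide fusion in wild type: PSI derived as read-weighted mean over the 8 sorting bins, only variants exceeding 10 total reads kept, mCherry placed adjacent to the peptide and sfGFP distal.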
Sequence,protein stability index (Saccharomyces cerevisiae [1]),protein stability index (Saccharomyces cerevisiae [2]),protein stability index (Saccharomyces cerevisiae [3])
AITCPMCPLLLR,0.297,0.643,
AITLCMCPLLLR,0.487,0.665,
AITLDMCPLLLR,0.346,0.68,
AITLMMCPLLLR,0.302,0.612,
AITLPMCLLLLR,0.116,0.629,
AITLPMCPLLLRA,0.171,0.3,
AITLPMCPLLLRC,0.0981,0.381,
AITLPMCPLLLRS,0.261,0.554,
AITLPMCPLLLRT,0.169,0.441,
AITLPMCPPLLR,0.546,0.663,
AITLPMCRLLLR,0.27,0.651,
AITLPMCSLLLR,0.212,0.656,
AITLPMCTLLLR,0.116,0.675,
AITLPMFPLLLR,0.16,0.638,
AITLPMGPLLLR,0.186,0.688,
AITLPMKPLLLR,0.297,0.659,
AITLPVCPLLLR,0.229,0.652,
AITLPWCPLLLR,0.153,0.662,
AITLVMCPLLLR,0.547,0.679,
AITMPMCPLLLR,0.285,0.677,
AITTPMCPLLLR,0.462,0.668,
AITWPMCPLLLR,0.226,0.7,

Sequence,protein stability index (Saccharomyces cerevisiae [1]),protein stability index (Saccharomyces cerevisiae [2]),protein stability index (Saccharomyces cerevisiae [3])
AMTLPMCPLLLR,0.223,0.646,
APTLPMCPLLLR,0.29,0.664,
ASTLPMCPLLLR,0.408,0.668,
AVTLPMCPLLLR,0.261,0.648,
CLDSLPILLFFR,0.214,0.664,
CLNSLPILLFFR,0.109,0.627,
CLVELPILLFFR,0.0526,0.625,
CLVSLDILLFFR,0.265,0.355,
CLVSLPFLLFFR,0.0627,0.618,
CLVSLPIALFFR,0.0824,0.631,
CLVSLPILDFFR,0.638,0.678,
CLVSLPILLFFF,0.304,0.42,
CLVSLPILLFFRA,0.0659,0.475,
CLVSLPILLFFRF,0.0553,0.483,
CLVSLPILLFFRL,0.0549,0.512,
CLVSLPILLFFT,0.248,0.528,
CLVSLPILLFPR,0.628,0.654,
CLVSLPILLGFR,0.391,0.653,
CLVSLPILNFFR,0.637,0.66,
CLVSLWILLFFR,0.149,0.365,
CLVSLYILLFFR,0.174,0.347,
CLYSLPILLFFR,0.0509,0.586,

Sequence,protein stability index (Saccharomyces cerevisiae [1]),protein stability index (Saccharomyces cerevisiae [2]),protein stability index (Saccharomyces cerevisiae [3])
DLVSLPILLFFR,0.109,0.637,
DVTRLDAIYFRI,0.481,0.739,
GFYMCSVGCWFR,0.204,0.632,
GLHMCSVGCWFR,0.214,0.682,
GLRMCSVGCWFR,0.248,0.676,
GLVSLPILLFFR,0.0632,0.608,
GLYMCHVGCWFR,0.279,0.629,
GLYMCLVGCWFR,0.254,0.406,
GLYMCRVGCWFR,0.291,0.638,
GLYMCSVGCKFR,0.619,0.654,
GLYMCSVGCVFR,0.561,0.627,
GLYMCSVGCWER,0.632,0.656,
GLYMCSVGCWFRH,0.271,0.616,
GLYMCSVGCWFRL,0.114,0.624,
GLYMCSVGCWTR,0.555,0.601,
GLYMCSVGLWFR,0.184,0.534,
GLYMCSVMCWFR,0.263,0.383,
GLYMCSVNCWFR,0.487,0.566,
GLYMCSVQCWFR,0.354,0.416,
GLYMCVVGCWFR,0.217,0.354,
GLYMCWVGCWFR,0.182,0.387,
GLYMFSVGCWFR,0.234,0.524,

Sequence,protein stability index (Saccharomyces cerevisiae [1]),protein stability index (Saccharomyces cerevisiae [2]),protein stability index (Saccharomyces cerevisiae [3])
GLYMNSVGCWFR,0.351,0.704,
GVTRLDAIYFRI,0.229,0.69,
KITLPMCPLLLR,0.253,0.653,
MLYMCSVGCWFR,0.328,0.604,
NLYMCSVGCWFR,0.414,0.657,
VRGAVGGWRLVGP,0.664,,0.671
VRGAVGGWRLVGV,0.649,,0.659
VRGAVGGWRLVV,0.16,,0.675
VRGAVGGWRMVG,0.155,,0.685
VRGAVGGWRTVG,0.157,,0.674
VRGAVGPWRLVG,0.138,,0.687
VRGAVGRWRLVG,0.159,,0.669
VRGAVGTWRLVG,0.171,,0.694
VRGAVLGWRLVG,0.146,,0.677
VRGAVWGWRLVG,0.108,,0.649
VRGMVGGWRLVG,0.161,,0.683
VRGTVGGWRLVG,0.151,,0.705
VRVAVGGWRLVG,0.111,,0.652
VWGAVGGWRLVG,0.134,,0.692
WKHKKGQKQKIN,0.135,,0.546
WSMRWTFRYWVN,0.0469,,0.48
